Reference: patent US10064928B2, “Peptides and combination of peptides for use in immunotherapy against CLL and other cancers” (IMMATICS BIOTECHNOLOGIES GMBH, priority 2015, dated 2018)

Columns and labels:
HLA-A*02:01 = HLA-A*02:01 (Homo sapiens, UniProt P04439, D140Y/D185E/D98H/E176V/E277Q/G131W/G231S/I119V/I121R/I166T/I218V/L300P/L318F/N151K/N90K/P208A/P217A/Q86G/Q94H/R138H/R169H/T345S); experiment: MHC binding assay (UV-ligand exchange, beta2m ELISA); conditions: binding of HLA-class I restricted peptides to HLA-A*02:01, β2m ELISA
In short: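 Peptide–MHC complexes formed by UV-ligand exchange, cleaving a UV-sensitive peptide so the test peptide can bind. Exchange yield measured by ELISA: complexes captured on streptavidin-coated wells, diluted 100-fold, detected with HRP anti-β2m (1 h, 37 °C) and TMB at 450 nm, against refolded HLA-A*02:01/MLA-001 standards (15-500 ng/ml).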

CD8+ T cells = experiment: In vitro T-cell priming assay with aAPCs loaded with peptide/MHC and anti-CD28, multimer readout; format: cell-based, human; conditions: in vitro immunogenicity, HLA-A*02 restricted peptides; percentage of positive wells
From the text: In order to obtain information regarding the immunogenicity of the TUMAPs of the present invention, the inventors performed investigations using an in vitro T-cell priming assay based on repeated stimulations of CD8+ T cells with artificial antigen presenting cells (aAPCs) loaded with peptide/MHC complexes and anti-CD28 antibody.
In order to perform in vitro stimulations by artificial antigen presenting cells loaded with peptide-MHC complex (pMHC) and anti-CD28 antibody, the inventors first isolated CD8+ T cells from fresh HLA-A*02 leukapheresis products via positive selection using CD8 microbeads (Miltenyi Biotec, Bergisch-Gladbach, Germany) of healthy donors obtained from the University clinics Mannheim, Germany, after informed consent.
PBMCs and isolated CD8+ lymphocytes were incubated in T-cell medium (TCM) until use consisting of RPMI-Glutamax (Invitrogen, Karlsruhe, Germany) supplemented with 10% heat inactivated human AB serum (PAN-Biotech, Aidenbach, Germany), 100 U/ml Penicillin/100 μg/ml Streptomycin (Cambrex, Cologne, Germany), 1 mM sodium pyruvate (CC Pro, Oberdorla, Germany), 20 μg/ml Gentamycin (Cambrex). 2.5 ng/ml IL-7 (PromoCell, Heidelberg, Germany) and 10 U/ml IL-2 (Novartis Pharma, Nürnberg, Germany) were also added to the TCM at this step.
Generation of pMHC/anti-CD28 coated beads, T-cell stimulations and readout was performed in a highly defined in vitro system using four different pMHC molecules per stimulation condition and 8 different pMHC molecules per readout condition.
The purified co-stimulatory mouse IgG2a anti human CD28 Ab 9.3 (Jung et al., 1987) was chemically biotinylated using Sulfo-N-hydroxysuccinimidobiotin as recommended by the manufacturer (Perbio, Bonn, Germany). Beads used were 5.6 μm diameter streptavidin coated polystyrene particles (Bangs Laboratories, Illinois, USA).
800.000 beads/200 μl were coated in 96-well plates in the presence of 4×12.5 ng different biotin-pMHC, washed and 600 ng biotin anti-CD28 were added subsequently in a volume of 200 μl. Stimulations were initiated in 96-well plates by co-incubating […] CD8+ T cells with 2×10^5 washed coated beads in 200 μl TCM supplemented with 5 ng/ml IL-12 (PromoCell) for 3 days at 37° C. Half of the medium was then exchanged by fresh TCM supplemented with 80 U/ml IL-2 and incubating was continued for 4 days at 37° C. This stimulation cycle was performed for a total of three times. For the pMHC multimer readout using 8 different pMHC molecules per condition, a two-dimensional combinatorial coding approach was used as previously described (Andersen et al., 2012) with minor modifications encompassing coupling to 5 different fluorochromes. Finally, multimeric analyses were performed by staining the cells with Live/dead near IR dye (Invitrogen, Karlsruhe, Germany), CD8-FITC antibody clone SK1 (BD, Heidelberg, Germany) and fluorescent pMHC multimers. For analysis, a BD LSRII SORP cytometer equipped with appropriate lasers and filters was used. Peptide specific cells were calculated as percentage of total CD8+ cells. Evaluation of multimeric analysis was done using the FlowJo software (Tree Star, Oreg., USA). In vitro priming of specific multimer+CD8+ lymphocytes was detected by comparing to negative control stimulations.

Substance	Peptide Exchange (MHC class I binding score, peptide exchange yield) (HLA-A*02:01)	Wells positive [%] (CD8+ T cells)
332 (VMIQHVENL; listed as Homo sapiens) [compound 332]	“+++” (≥50 = +++)	“+” (<20% = +)
5 (ALIFKIASA; listed as Homo sapiens) [compound 5]	“+++” (≥50 = +++)	“+++” (50%-69% = +++)
100 (ILNNEVFAI; listed as Homo sapiens) [compound 100]	“+++” (≥50 = +++)	“++” (20%-49% = ++)

The next lines start with results.

Peptide Exchange (MHC class I binding score, peptide exchange yield) (HLA-A*02:01)	Substance	Wells positive [%] (CD8+ T cells)
“+++” (≥50 = +++)	192 (YIQEYLTLL; listed as Homo sapiens) [compound 192]	“+” (<20% = +)
“++++” (≥75% = ++++)	101 (ILVVIEPLL; listed as Homo sapiens) [compound 101]	“+” (<20% = +)
